Here are results for one molecule from patent US20130243767A1.

The assay addresses CD32 (FcγRII) on human plasmacytoid dendritic cells (human) (UniProt P12318). Nature of the assay: cell-based or functional assay.

Ends that are not written are not given here.

CD32 (FcγRII) on human plasmacytoid dendritic cells (human), sequence (P12318 34-317): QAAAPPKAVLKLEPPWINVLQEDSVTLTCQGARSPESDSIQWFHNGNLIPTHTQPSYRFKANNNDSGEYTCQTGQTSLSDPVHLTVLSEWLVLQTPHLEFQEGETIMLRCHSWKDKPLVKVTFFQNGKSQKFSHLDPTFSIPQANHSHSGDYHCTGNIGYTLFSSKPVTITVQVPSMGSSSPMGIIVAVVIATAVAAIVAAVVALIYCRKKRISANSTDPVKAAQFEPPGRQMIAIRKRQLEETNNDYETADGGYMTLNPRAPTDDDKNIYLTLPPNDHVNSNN

As to ADGAWAWVWLTETAVGAAK-biotin [aCD32a peptide published by Berntzen et al, …-biotin], the IL-6 production of pDCS in PBMC after stimulation with CPG-C was found to be 75 times and the TNFα induction in PBMC after stimulation with CPG-C was found to be 3 times.
